Data as given in US20220227866A1 (VELOSBIO, published 2022).
Several values for one entry are separate records, joined by “and”; a condition that tells them apart may be missing. Identical values can stand only once. Each block holds one binder with its values, some of them ahead of it.

What was measured:
human ROR1 on cells [1] = molecular target: T1, human ROR1 on cells (human, UniProt Q01973 30-937); assay: cell-based or functional assay
[2] = molecular target: T2, human CD3 on Jurkat cells (human, UniProt P09693 23-182; P04234 22-171; P07766 23-207); assay: flow cytometry on Jurkat cells
T2 construct: GenBank NP_000064.1, NP_000723.1, NP_000724.1
Description: (§1) To quantitate CD3 binding, 2.5E5 Jurkat cells were used for each condition. A 2× stock of the cells was made by resuspending the cells to 5E6/mL by placing in 50 μL of PBS with 2% FBS. Next, the cells were diluted with an equal volume of 2× stock of the test bispecific binding molecule. The cells and antibody were co-incubated on ice for 20 min. The cells were then washed 3 times with 300 μL of FACS buffer and were resuspended in 100 μL of goat anti-human Fc-PE conjugate antibody (Invitrogen cat. #12499882) at 1:500 dilution and incubated on ice with reduced light for 20 min. The cells were then washed 3 times with 300 μL of FACS buffer and fixed with 2% paraformaldehyde for 10 min at 25° C. The cells were washed 2 times with 300 μL of FACS buffer and analyzed on a Miltenyi MACSQuant Analyzer.

[3] = molecular target: T3, recombinant human ROR1 extracellular domain (human, UniProt Q01973 30-406); assay: ELISA, immobilised ROR1 ECD, construct titrated
T3 construct: Bought (Acro Biosystems cat. R01-H522Y); whole entry named; also called ROR1-ECD; immobilized ROR1
Description: A 96-well Costar-3366 plate was coated with 50 μL/well of 2 μg/mL […] (Acro Biosystems cat. #R01-H522Y) in PBS overnight at 4° C. The plate was rinsed once with PBS containing 0.05% Tween 20 (PBS-T) and blocked with 100 μL/well of 5% non-fat milk in PBS (5% M-P) for 1 h at 25° C. Antibody samples were serially diluted 2-fold using 5% M-P and were incubated for 1 h at 25° C. (50 μL/well). The plate was washed three times with PBS-T and 50 μL/well anti-human kappa, HRP conjugate (Southern Biotech cat. #2060-05) diluted 10,000-fold in 5% M-P was added for 1 h at 25° C. The plate was washed three times with PBS-T, developed with 50 μL/well 1-Step Ultra TMB-ELISA (Thermo Scientific cat. #34028). The reaction was terminated by the addition of 2 N H₂SO₄ and the A450 was determined using a Spectramax plate reader.
Next, the binding of bispecific binding molecules to ROR was characterized by ELISA using recombinantly-expressed extracellular domain of RORL. ROR was immobilized on a microtiter plate, the bispecific binding molecules were titrated, and binding was quantitated with an anti-human kappa-HRP reagent. Consistent with the cell binding data, all constructs bound ROR1 in a concentration-dependent manner (FIG. 6). Moreover, monovalent ROR1 constructs 13-15 bound less tightly than all but two of the bivalent constructs.

[4] = molecular target: T4, soluble biotinylated human ROR1 extracellular domain (human, UniProt Q01973 30-406, biotinylated with EZ-Link Sulfo-NHS-LC-Biotin at a 1:5 molar ratio); assay: ELISA, captured construct, biotinylated ROR1 titrated
T4 construct: Acro Biosystems cat; whole entry named; also called b-ROR1; soluble b-ROR1
Description: To measure the binding of bispecific constructs to soluble ROR1, a 96-well Costar-3366 plate was coated with 50 μL/well of 2 μg/mL goat anti-human kappa (Southern Biotech cat. #2060-01) in PBS overnight at 4° C. The plate was rinsed once with PBS-T, blocked with 100 μL/well 5% M-P for 1 h at 25° C., rinsed once with PBS-T, and 2 μg/mL of the bispecific binding molecule was added and incubated for 1 h at 25° C. The plate was washed three times with PBS-T. Biotinylated ROR1 was diluted serially, 3-fold in 5% M-P and was incubated for 1 h at 25° C. (50 μL/well). The plate was washed three times with PBS-T. To detect the binding of b-ROR1, 50 μL/well Neutravidin-HRP (Pierce cat. #31030) diluted 1:5000 in 1% BSA-PBS was added for 1 h at 25° C. The plate was washed three times with PBS-T, then developed with 50 μL/well 1-Step Ultra TMB-ELISA (Thermo Scientific cat. #34028). The reaction was terminated by the addition of 2 N H₂SO₄ and the A450 was determined using a Spectramax plate reader.
The stronger binding observed with bivalent constructs versus monovalent constructs in cell assays and ELISAs in which the antigen is immobilized is consistent with an avidity effect. To determine if this was the case, binding to soluble monomeric ROR1 was assessed by immobilizing the bispecific binding molecules on a microtiter plate coated with goat anti-human kappa antibody and titrating biotinylated RORL. All bispecific binding molecules were active in this format (FIG. 7), and in most cases, there were no notable differences between monovalent and bivalent constructs.

human ROR1 on cells [5] = molecular target: T1, human ROR1 on cells; assay: flow cytometry on ROR1-transfected MEC cells after 24 h incubation with the construct
human ROR1 on cells [6] = molecular target: T1, human ROR1 on cells; assay: flow cytometry on JeKo-1 cells
Description: ROR1 binding was quantitated using both ROR1-transfected MEC cells and JeKo-1 cells. For each condition, 2.5E5 cells were used. The cells were placed in 50 μL of PBS with 2% FBS. Next, the cells were diluted with an equal volume of 2× stock of the test bispecific binding molecule. The cells and antibody were co-incubated on ice for 20 min. The cells were then washed 3 times with 300 μL of FACS buffer and were resuspended in 100 μL of anti-human Fc-PE conjugate antibody (Invitrogen cat. #12499882) and incubated on ice with reduced light for 20 min. Subsequently, the cells were washed 3 times with 300 μL of FACS buffer and fixed with 2% paraformaldehyde for 10 min at 25° C. The cells then were washed 2 times with 300 μL of FACS buffer and analyzed on a Miltenyi MACSQuant Analyzer.
The influence of ROR expression levels on binding of the bispecific constructs was assessed by flow cytometry using JeKo-1 cells. JeKo-1 cells express lower levels of ROR (˜13,000 copies/cell) than the ROR1-transfected MEC cells (˜56,000 copies/cell). All constructs bound JeKo-1 cells (FIG. 5). […] Specifically, monovalent ROR1 constructs generally bound more weakly than the bivalent constructs (FIG. 5, Panel A, compare constructs 14 and 15 with other constructs; FIG. 5, Panel C, compare constructs 15-17 with other constructs).

[7] = molecular target: T2, human CD3 on Jurkat cells; assay: flow cytometry on Jurkat cells (1 ug/mL construct on ice, washed, then 37 C)
Description: as §1
To quantitate internalization of the bispecific binding molecules, 2.5E5 Jurkat cells were co-incubated with 1 μg/mL of the bispecific binding molecule on ice for 20 min. The cells were then washed 3 times 300 μL with ice-cold FACS buffer and were resuspended in culture media and incubated at 37° C. At various times, cells were removed, washed with 300 μL ice-cold FACS buffer and processed as described above.

[8] = molecular target: T3, recombinant human ROR1 extracellular …; assay: ELISA, Fab titrated on immobilized human ROR1

T1 sequence (Q01973 30-937 limits assumed): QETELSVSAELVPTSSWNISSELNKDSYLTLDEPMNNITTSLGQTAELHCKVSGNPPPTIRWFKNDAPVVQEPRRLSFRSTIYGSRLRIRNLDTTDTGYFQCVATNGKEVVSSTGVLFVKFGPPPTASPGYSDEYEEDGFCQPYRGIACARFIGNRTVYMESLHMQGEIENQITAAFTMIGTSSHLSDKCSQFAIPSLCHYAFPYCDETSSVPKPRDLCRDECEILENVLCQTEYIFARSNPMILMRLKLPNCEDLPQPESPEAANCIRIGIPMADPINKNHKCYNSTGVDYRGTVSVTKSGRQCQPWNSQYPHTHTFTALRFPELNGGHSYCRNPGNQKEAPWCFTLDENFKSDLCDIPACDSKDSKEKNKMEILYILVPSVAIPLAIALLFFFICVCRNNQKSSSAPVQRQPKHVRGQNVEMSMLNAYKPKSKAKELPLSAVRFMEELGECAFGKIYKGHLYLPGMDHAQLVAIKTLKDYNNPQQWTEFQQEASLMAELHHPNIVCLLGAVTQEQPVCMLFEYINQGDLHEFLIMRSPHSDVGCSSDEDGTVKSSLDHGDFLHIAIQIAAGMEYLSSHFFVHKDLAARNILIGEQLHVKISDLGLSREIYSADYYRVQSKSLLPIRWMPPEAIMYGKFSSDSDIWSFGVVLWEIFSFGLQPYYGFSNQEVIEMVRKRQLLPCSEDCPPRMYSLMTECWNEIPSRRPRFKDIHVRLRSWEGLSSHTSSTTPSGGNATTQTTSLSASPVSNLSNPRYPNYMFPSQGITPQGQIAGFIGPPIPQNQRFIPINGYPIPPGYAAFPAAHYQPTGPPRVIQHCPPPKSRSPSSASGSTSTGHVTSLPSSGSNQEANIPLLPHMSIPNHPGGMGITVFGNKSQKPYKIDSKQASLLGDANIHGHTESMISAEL
T3 sequence (Q01973 30-406 limits assumed): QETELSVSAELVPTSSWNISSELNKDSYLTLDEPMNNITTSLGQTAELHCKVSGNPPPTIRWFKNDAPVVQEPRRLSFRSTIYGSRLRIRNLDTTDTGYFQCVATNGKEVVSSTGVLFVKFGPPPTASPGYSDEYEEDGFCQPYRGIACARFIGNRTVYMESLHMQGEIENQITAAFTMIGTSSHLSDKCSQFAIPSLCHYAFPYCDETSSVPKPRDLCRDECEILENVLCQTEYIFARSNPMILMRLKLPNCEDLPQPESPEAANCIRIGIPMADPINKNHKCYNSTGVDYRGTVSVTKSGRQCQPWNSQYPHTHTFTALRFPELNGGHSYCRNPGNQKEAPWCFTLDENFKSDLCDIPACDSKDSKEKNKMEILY
T4 sequence (Q01973 30-406 limits assumed): as above
T2 sequence (P09693 23-182 limits assumed, chain 1 of 3): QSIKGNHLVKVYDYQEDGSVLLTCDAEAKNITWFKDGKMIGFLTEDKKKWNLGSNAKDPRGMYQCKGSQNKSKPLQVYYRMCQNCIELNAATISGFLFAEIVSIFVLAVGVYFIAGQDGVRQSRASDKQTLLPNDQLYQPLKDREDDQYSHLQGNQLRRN
T2 sequence (P04234 22-171 limits assumed, chain 2 of 3): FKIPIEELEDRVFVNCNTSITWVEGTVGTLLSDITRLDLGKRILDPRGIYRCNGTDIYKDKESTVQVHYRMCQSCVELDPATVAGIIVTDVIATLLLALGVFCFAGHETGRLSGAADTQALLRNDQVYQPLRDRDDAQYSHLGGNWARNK
T2 sequence (P07766 23-207 limits assumed, chain 3 of 3): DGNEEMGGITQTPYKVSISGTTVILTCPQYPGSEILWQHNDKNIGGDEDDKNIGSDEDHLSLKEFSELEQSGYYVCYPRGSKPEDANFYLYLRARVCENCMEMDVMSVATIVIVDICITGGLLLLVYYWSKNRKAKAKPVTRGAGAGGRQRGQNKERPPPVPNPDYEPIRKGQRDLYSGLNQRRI

EC50, LDH release, ROR1-transfected MEC (human ROR1 on cells [1]): 11 ng/mL and 55 pM
Max. LDH Release, ROR1-transfected MEC (human ROR1 on cells [1]): 42%
binding result [2]: binds
Kd [3]: 200 pM
Kd [4]: 193 pM
EC50 (read off the curve) (human ROR1 on cells [5]): ~3 ng/mL
B1: Bispecific construct 1 (bispecific antibody, human IgG1, kappa)
heavy: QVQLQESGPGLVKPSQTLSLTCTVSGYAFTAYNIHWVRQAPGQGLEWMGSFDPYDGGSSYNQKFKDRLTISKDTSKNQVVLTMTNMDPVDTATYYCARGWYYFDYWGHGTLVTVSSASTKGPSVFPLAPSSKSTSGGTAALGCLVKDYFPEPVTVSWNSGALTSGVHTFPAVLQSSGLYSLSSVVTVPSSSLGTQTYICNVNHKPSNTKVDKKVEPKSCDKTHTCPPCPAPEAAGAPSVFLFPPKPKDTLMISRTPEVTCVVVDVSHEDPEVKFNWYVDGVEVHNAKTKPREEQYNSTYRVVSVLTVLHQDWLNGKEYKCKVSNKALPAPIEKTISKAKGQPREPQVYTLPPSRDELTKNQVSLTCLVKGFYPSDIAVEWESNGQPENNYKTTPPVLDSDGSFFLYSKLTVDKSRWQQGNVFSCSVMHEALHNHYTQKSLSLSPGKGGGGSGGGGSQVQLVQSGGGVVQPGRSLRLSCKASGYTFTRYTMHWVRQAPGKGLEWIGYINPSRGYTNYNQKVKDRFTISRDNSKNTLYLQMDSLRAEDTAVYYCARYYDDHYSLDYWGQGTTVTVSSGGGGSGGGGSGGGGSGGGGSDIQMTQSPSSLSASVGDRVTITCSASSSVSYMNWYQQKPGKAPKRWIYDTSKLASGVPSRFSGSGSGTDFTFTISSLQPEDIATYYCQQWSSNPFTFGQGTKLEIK
light: DIVMTQTPLSLPVTPGEPASISCRASKSISKYLAWYQQKPGQAPRLLIYSGSTLQSGIPPRFSGSGYGTDFTLTINNIESEDAAYYFCQQHDESPYTFGEGTKVEIKRTVAAPSVFIFPPSDEQLKSGTASVVCLLNNFYPREAKVQWKVDNALQSGNSQESVTEQDSKDSTYSLSSTLTLSKADYEKHKVYACEVTHQGLSSPVTKSFNRGEC
notes: ROR1 arm Ab1; CD3 valency 2, ROR1 valency 2

EC50, LDH release, ROR1-transfected MEC (human ROR1 on cells [1]): 5 ng/mL and 25 pM
Max. LDH Release, ROR1-transfected MEC (human ROR1 on cells [1]): 50%
EC50 (read off the curve) (human ROR1 on cells [6]): ~20 ng/mL
Kd [3]: 41 pM
Kd [4]: 129 pM
binding result [7]: binds
B2: Bispecific construct 2 (bispecific antibody, human IgG1, kappa)
heavy: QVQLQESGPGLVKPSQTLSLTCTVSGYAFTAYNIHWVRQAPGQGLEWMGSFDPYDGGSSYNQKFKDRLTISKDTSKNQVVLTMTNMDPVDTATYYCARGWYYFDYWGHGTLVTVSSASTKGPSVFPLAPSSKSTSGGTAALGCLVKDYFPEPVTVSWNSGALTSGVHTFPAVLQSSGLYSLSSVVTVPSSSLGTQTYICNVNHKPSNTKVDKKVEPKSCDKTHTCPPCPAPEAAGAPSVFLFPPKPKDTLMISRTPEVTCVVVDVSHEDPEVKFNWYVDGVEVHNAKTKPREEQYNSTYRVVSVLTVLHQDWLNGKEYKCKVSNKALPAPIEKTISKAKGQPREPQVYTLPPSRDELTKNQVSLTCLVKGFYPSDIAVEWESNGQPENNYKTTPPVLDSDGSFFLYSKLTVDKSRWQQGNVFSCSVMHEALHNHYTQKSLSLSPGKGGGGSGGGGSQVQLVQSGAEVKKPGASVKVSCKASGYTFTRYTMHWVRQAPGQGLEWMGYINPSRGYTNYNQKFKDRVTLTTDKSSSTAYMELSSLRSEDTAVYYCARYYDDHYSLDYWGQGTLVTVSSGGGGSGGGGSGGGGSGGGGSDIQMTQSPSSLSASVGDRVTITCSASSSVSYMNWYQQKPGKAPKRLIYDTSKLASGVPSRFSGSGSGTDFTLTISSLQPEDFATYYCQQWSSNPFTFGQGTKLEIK
light: B1 light
notes: anti-CD3 scFv Ab9 (OKT3-based); ROR1 arm Ab1; valency 2/2

EC50, LDH release, A549 (human ROR1 on cells [1]): 3.39 ng/mL and 17.1 pM
EC50, LDH release, A4573 (human ROR1 on cells [1]): 1.2 ng/mL and 6.1 pM
EC50, LDH release, JeKo-1 (human ROR1 on cells [1]): 1.62 ng/mL and 8.1 pM
EC50, LDH release, Mino (human ROR1 on cells [1]): 0.95 ng/mL and 4.8 pM
EC50, LDH release, Saos-2 (human ROR1 on cells [1]): 2.92 ng/mL and 14.7 pM
Max. LDH Release, Mino (human ROR1 on cells [1]): 53%
Kd [3]: 98 pM
Kd [4]: 151 pM
binding result [7]: binds
B3: Bispecific construct 8 (bispecific antibody, human IgG1, kappa)
heavy: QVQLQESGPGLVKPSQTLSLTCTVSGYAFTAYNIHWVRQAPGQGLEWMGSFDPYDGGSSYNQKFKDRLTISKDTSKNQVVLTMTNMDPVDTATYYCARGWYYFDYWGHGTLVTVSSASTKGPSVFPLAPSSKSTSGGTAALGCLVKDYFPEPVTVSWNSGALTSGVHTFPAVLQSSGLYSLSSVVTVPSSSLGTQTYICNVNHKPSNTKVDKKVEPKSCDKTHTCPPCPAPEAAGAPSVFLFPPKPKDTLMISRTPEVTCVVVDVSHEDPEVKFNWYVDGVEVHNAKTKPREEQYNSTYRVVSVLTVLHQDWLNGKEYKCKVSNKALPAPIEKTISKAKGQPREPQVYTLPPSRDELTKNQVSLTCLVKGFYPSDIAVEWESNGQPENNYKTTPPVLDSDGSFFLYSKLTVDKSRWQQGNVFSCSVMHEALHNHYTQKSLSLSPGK
light: DIVMTQTPLSLPVTPGEPASISCRASKSISKYLAWYQQKPGQAPRLLIYSGSTLQSGIPPRFSGSGYGTDFTLTINNIESEDAAYYFCQQHDESPYTFGEGTKVEIKRTVAAPSVFIFPPSDEQLKSGTASVVCLLNNFYPREAKVQWKVDNALQSGNSQESVTEQDSKDSTYSLSSTLTLSKADYEKHKVYACEVTHQGLSSPVTKSFNRGECGGGGSGGGGSQVQLVQSGAEVKKPGASVKVSCKASGYTFTRYTMHWVRQAPGQGLEWMGYINPSRGYTNYNQKFKDRVTLTTDKSSSTAYMELSSLRSEDTAVYYCARYYDDHYSLDYWGQGTLVTVSSGGGGSGGGGSGGGGSGGGGSDIQMTQSPSSLSASVGDRVTITCSASSSVSYMNWYQQKPGKAPKRLIYDTSKLASGVPSRFSGSGSGTDFTLTISSLQPEDFATYYCQQWSSNPFTFGQGTKLEIK
notes: as for B2

EC50 (read off the curve) [8]: ~6000 pM
B4: parental Ab1 Fab (WT) (Fab, V domains shown)
VH: QVQLQESGPGLVKPSQTLSLTCTVSGYAFTAYNIHWVRQAPGQGLEWMGSFDPYDGGSSYNQKFKDRLTISKDTSKNQVVLTMTNMDPVDTATYYCARGWYYFDYWGHGTLVTVSS
VL: DIVMTQTPLSLPVTPGEPASISCRASKSISKYLAWYQQKPGQAPRLLIYSGSTLQSGIPPRFSGSGYGTDFTLTINNIESEDAAYYFCQQHDESPYTFGEGTKVEIKR
notes: Tested as Fab; also called parental Fab; parental antibody

EC50, LDH release, Mino (human ROR1 on cells [1]): 0.97 ng/mL and 4.9 pM
EC50, LDH release, ROR1-transfected MEC (human ROR1 on cells [1]): 1.3 ng/mL and 6.5 pM
Max. LDH Release, Mino (human ROR1 on cells [1]): 50%
Max. LDH Release, ROR1-transfected MEC (human ROR1 on cells [1]): 55%
binding result [2]: binds
Kd [3]: 50 pM
Kd [4]: 118 pM
EC50 (read off the curve) (human ROR1 on cells [5]): ~5 ng/mL
B5: Bispecific construct 7 (bispecific antibody, human IgG1, kappa)
heavy: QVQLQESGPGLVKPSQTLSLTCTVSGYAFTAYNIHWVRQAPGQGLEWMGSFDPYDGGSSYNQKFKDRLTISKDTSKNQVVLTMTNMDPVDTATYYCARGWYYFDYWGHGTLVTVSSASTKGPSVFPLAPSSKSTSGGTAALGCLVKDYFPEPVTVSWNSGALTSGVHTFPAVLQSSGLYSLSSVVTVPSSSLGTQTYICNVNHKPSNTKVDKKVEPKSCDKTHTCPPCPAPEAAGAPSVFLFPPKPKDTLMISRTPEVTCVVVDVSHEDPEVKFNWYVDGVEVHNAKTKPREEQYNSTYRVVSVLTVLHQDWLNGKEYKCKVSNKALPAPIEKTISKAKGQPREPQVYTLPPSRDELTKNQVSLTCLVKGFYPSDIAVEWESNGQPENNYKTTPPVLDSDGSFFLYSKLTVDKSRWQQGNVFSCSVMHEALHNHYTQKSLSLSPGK
light: DIVMTQTPLSLPVTPGEPASISCRASKSISKYLAWYQQKPGQAPRLLIYSGSTLQSGIPPRFSGSGYGTDFTLTINNIESEDAAYYFCQQHDESPYTFGEGTKVEIKRTVAAPSVFIFPPSDEQLKSGTASVVCLLNNFYPREAKVQWKVDNALQSGNSQESVTEQDSKDSTYSLSSTLTLSKADYEKHKVYACEVTHQGLSSPVTKSFNRGECGGGGSGGGGSQVQLVQSGGGVVQPGRSLRLSCKASGYTFTRYTMHWVRQAPGKGLEWIGYINPSRGYTNYNQKVKDRFTISRDNSKNTLYLQMDSLRAEDTAVYYCARYYDDHYSLDYWGQGTTVTVSSGGGGSGGGGSGGGGSGGGGSDIQMTQSPSSLSASVGDRVTITCSASSSVSYMNWYQQKPGKAPKRWIYDTSKLASGVPSRFSGSGSGTDFTFTISSLQPEDIATYYCQQWSSNPFTFGQGTKLEIK
notes: ROR1 arm Ab1; valency 2/2
